Test system: All antibodies according to the invention, which were tested (Example 4)

Chain of recombinant catalytic domain of human MMP8 (chain, as listed by the source): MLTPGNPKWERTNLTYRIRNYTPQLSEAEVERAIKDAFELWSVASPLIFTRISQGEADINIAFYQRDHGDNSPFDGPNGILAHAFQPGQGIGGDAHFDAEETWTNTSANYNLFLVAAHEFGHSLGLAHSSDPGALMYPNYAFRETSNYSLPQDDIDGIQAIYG
Chain of recombinant catalytic domain of human MMP19 (chain, as listed by the source): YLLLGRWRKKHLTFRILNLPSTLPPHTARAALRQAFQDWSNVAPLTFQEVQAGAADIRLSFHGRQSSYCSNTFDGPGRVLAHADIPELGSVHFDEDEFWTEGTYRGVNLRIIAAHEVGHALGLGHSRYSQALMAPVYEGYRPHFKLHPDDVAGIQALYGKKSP
Chain of recombinant catalytic domain of human MMP2 (chain, as listed by the source): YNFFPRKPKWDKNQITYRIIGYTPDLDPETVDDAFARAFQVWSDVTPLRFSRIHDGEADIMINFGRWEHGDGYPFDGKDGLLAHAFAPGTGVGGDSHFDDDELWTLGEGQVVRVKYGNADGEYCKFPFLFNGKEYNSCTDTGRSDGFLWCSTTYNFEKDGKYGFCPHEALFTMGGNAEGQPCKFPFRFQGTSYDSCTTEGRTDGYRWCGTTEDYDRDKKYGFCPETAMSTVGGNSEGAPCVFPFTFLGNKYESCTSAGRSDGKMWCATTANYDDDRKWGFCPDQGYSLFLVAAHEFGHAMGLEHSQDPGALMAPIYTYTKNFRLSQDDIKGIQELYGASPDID
Chain of recombinant catalytic domain of human MMP3 (chain, as listed by the source): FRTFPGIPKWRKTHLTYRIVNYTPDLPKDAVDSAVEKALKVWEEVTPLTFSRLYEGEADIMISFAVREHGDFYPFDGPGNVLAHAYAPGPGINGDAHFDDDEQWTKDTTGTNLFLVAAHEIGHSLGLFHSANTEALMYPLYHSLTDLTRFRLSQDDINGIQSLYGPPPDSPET

Substance	cleavage of fluorogenic peptide OmniMMP RED by MMP catalytic domain, antibody at 100 nM
recombinant catalytic domain of human MMP8	had no significant effect on the catalytic activity of the eight other human MMPs tested
recombinant catalytic domain of human MMP2	had no significant effect on the catalytic activity of the eight other human MMPs tested
recombinant catalytic domain of human MMP13	had no significant effect on the catalytic activity of the eight other human MMPs tested
recombinant catalytic domain of human MMP19	had no significant effect on the catalytic activity of the eight other human MMPs tested
recombinant catalytic domain of human MMP3	had no significant effect on the catalytic activity of the eight other human MMPs tested

Reference: patent publication US20170233495
